This is an account of results in paper PMC5385344, “Large Diversity of Functional Nanobodies from a Camelid Immune Library Revealed by an Alternative Analysis of Next-Generation Sequencing Data” (Frontiers in Immunology, 2017).

Test [1] has as its target Recombinant extracellular domain of human RON (rhRON) (human, UniProt Q04912).
The target of test [2] is full-length human RON expressed on HEK293T cells (HEK293T-hRON) (Homo sapiens, UniProt Q04912).
Sequence of full-length human RON expressed on HEK293T cells (HEK293T-hRON) (Q04912 25-1400): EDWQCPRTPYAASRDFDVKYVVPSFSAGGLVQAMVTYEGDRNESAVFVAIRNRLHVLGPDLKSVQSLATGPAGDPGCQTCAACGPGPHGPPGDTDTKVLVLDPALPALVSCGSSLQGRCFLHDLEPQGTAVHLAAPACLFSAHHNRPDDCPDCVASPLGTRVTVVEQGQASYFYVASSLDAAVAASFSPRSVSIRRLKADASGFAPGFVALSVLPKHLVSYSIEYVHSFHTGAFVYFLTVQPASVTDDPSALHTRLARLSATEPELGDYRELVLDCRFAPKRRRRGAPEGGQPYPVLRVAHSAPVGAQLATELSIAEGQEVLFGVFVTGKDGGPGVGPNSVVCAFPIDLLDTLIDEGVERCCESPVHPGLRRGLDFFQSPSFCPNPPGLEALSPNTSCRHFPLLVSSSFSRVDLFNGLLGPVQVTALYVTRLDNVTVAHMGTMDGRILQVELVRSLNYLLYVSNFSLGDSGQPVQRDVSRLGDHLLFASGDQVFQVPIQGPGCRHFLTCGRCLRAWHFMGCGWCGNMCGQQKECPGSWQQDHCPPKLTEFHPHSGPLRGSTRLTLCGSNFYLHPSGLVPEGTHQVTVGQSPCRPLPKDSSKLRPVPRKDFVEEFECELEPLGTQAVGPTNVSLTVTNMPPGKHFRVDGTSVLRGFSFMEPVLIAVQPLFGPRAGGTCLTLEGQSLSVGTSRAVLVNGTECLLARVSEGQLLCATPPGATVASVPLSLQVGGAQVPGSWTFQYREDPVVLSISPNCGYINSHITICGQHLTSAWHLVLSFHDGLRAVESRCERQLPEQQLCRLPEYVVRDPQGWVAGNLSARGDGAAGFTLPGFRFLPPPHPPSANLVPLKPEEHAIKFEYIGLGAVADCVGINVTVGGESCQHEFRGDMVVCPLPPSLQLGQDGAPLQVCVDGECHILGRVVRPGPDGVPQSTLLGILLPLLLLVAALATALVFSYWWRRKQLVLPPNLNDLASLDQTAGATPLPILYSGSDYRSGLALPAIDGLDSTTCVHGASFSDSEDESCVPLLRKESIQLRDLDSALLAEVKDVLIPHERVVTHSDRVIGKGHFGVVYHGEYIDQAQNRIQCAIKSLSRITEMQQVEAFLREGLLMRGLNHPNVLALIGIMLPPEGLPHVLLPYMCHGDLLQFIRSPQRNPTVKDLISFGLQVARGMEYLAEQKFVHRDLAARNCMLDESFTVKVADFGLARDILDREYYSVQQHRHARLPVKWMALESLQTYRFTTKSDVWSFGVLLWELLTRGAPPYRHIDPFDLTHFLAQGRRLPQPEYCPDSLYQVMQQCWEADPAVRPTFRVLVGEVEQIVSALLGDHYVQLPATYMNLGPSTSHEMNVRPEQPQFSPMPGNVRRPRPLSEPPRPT

Sequence of Recombinant extracellular domain of human RON (rhRON) (Q04912 25-957): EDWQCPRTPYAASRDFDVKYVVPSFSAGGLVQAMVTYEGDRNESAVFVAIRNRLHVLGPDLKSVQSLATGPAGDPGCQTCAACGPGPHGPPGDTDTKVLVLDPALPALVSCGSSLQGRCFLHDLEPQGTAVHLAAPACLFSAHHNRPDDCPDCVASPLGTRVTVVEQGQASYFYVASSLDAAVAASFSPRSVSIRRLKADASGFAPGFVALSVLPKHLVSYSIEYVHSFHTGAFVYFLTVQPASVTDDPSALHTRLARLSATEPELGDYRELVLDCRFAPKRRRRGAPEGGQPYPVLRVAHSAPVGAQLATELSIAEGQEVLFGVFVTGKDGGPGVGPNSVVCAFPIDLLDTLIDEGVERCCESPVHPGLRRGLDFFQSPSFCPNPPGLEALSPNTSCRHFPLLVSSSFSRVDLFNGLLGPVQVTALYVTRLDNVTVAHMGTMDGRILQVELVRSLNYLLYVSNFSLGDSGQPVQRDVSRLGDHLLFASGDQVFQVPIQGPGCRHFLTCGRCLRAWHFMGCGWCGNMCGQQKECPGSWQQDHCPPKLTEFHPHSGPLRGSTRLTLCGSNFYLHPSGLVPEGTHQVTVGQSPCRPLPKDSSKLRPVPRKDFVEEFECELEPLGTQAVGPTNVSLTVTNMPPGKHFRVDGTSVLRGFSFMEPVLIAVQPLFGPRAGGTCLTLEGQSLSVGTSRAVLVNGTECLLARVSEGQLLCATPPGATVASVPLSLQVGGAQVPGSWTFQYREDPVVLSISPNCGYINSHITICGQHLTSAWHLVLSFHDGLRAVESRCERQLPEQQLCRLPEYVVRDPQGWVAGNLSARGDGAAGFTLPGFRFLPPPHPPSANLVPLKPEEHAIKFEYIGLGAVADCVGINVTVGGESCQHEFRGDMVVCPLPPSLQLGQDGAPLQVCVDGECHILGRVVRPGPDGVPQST

B1: KY704042 (VHH)
VHH: EVQLVESGGGLVQAGGSLRLSCAASGRSFGSYHMGWFRQALGKEREFVAAISSGGGLLDYEDSVKGRFTISRDNAKNTVYLQMNSLTPEDTAVYYCAATARVWGSWFTSDYDYWGQGTLVTVSS
As to B1, the binding result in test [1] and in test [2] was “binds” each time.

B2: 8E08 (VHH)
VHH: EVQLVESGGGLVQPGGSLRLSCAASGFTLDNHAIGWFRRAPGKERERIGCISSSSGTTAYADSVEGRFTISRDNAKNTVYLQMNSLKPEDTAVYYCAARFQGGFLGCTFAPQTFGYWGQGTQVTVSS
For B2, the binding result in test [1] and in test [2] was “binds” in each case.

B3: 5F06 (VHH)
VHH: EVQLVESGGGLVQAGGSLGLSCAASGRVAMGWFRRPPGQERDFVAAISASGATTYYADSVKGRFTISRDSAKTTVYLQMNSLKPEDTAVYYCAARLSWSSDYRSGGSYEHWGQGTQVTVSS
As to B3, the binding result in test [1] and in test [2] was “binds” in each case.

B4: KY704043 (VHH)
VHH: EVQLVESGGGLVQAGGSLRLSCVASGRAYRNYVMGWFRQGPGKEREFVATIRPDDGSILSSNSVRGRITISSDNAKNTVYLQMSTLAPEDTAIYYCAYGTTPSMLARKYDYWGQGTLVTVSS
Regarding B4, the binding result in test [1] and in test [2] was “binds” each time.

B5: 11G07 (VHH)
VHH: EVQLVESGGGLVQAGGSLRLSCAASGRSFSGDTMGWFLQAPGKEREFVAGINWSSRSTNYADSVKGRFTISRDNAKNTVYLQMNTLKPEDTAVYYCAAGPPSPYIYSRPDLYTYWGQGTQVTVSS
In the case of B5, the binding result in test [1] and in test [2] was “binds” throughout.

B6: 8B01 (VHH)
VHH: EVQLVESRGGTVQAGGSLRLSCAASGRTFSNYAAGWFRQAPGKEREFVAGISAKGGVTYYVDFVKGRFTISRDNAKNTVYLQMNSLKPEDTAVYYCAADGSYGTILATIAENSRISLLKDWGQGTLVTVSS
Turning to B6, the binding result in test [1] and in test [2] was “binds” throughout.

B7: 11G06 (VHH)
VHH: EVQLVESGGGLVQPGGSLRLSCAASGSIFSVNAMGWYRQAPGKQRELVASMVSGRSPAYADSVKGRFTISRDNAENTVYLQMNSLKPEDTAVYYCNIKGEYYSRSQYNVWGQGTQVTVSS
In the case of B7, the binding result in test [1] and in test [2] was “binds” throughout.

B8: KY704045 (VHH)
VHH: EVQLVESGGGLVQAGGSLRLSCAASGRTFSSYIMAWFRQAPGKERDVVATVSWGGETTYYADSVKGRFTISRDNAKNTVYLQMNSLKPEDTAVYYCAASHARGYWHTPFTVADVGSWGQGTLVTVSS
For the molecule B8, the binding result in test [1] and in test [2] was “binds” throughout.

B9: KY704041 (VHH)
VHH: EVQLVESGGGLVQAGGSLRLSCAASGRAFSSYAMGWFRQAPGKEREFVAVISGRGGVTYYAASVKGRFTISRDNAKNTVLLQMSSLKPEDTGVYYCAAGPNIGVLTDPAYSGGDWGQGTLVTVSS
As to B9, the binding result in test [1] and in test [2] was “binds” throughout.

B10: 11A09 (VHH)
VHH: EVQLVESGGGLVQPGGSLRLSCAASGFTFSSYWMYWVRQAPGKGLEWVSAVNTGGGTTDYADSVKGRFTISRDNAKDTLYLQMNSLKYEDTAVYYCARDQRRYIRTTYDYHGQGTLVTVSS
Turning to B10, the binding result in test [1] and in test [2] was “binds” throughout.

B11: KY704047 (VHH)
VHH: EVQLVESGGGLVQAGGSLRLSCAASGIPFSRYHMGWFRQAPGKEREFVASVSWSGQNTYYADSVKGRFTISRDNAKNTGNLQMNSMKPEDTAVYYCAAGSRYYTDIIPNYYRYWGQGTLVTVSS
Consider B11, for which the binding result in test [1] and in test [2] was “binds” throughout.

B12: KY704044 (VHH)
VHH: EVQLVESGGGLVQAGGSLRLSCAASGRTSSIYRMGWFRQAPGKERDIVASIHWSGGRWFYADFVKGRFTISRDNAENTVYLQMSSLKPEDTAVYYCAARTPGTLTYDYWGQGTLVTVSS
Regarding B12, the binding result in test [1] and in test [2] was “binds” in each case.

B13: 5B10 (VHH)
VHH: EVQLVESGGGLVQAGGSLRLSCATSGRYVMGWFRQAPGQEREFVTSISRSGGSTTYADSVKGRFTISRDSAENTVYLQMNSLKPEDTAVYYCAAWSYYGVAYTSTTSPDYWGQGTLVTVSS
B13: the binding result in test [1] and in test [2] was “binds” in each case.

B14: KY704038 (VHH)
VHH: EVQLVESGGGLVQAGGSLRLSCASSGIAFRLRTMDWYRQAPGNQREWVATITSDYSTDYADSVKGRFTISRDNAQNTVYLQMNSLKPEDTAVYYCHAGGVVWGQGTLVTVSS
Turning to B14, the binding result in test [1] and in test [2] was “binds” throughout.

B15: 11B09 (VHH)
VHH: EVQLVESGGGLVQAGGSLRLSCAASGRTFSNYAMGWFRQAPGKERDFVAAIDWSGDSISYENTVKGRFTISRDNAKNTMYLQMNSLKPEDTAVYFCATRSVGGISTLRRRYDYWGQGTLVTVSS
Turning to B15, the binding result in test [1] and in test [2] was “binds” each time.

B16: 11D08 (VHH)
VHH: EVQLVESGGGLVQPGGSLRLSCAASGFTFSSYWMYWVRQAPGKGLEWVSAISPASGSVDYIDSVKGRFTISRDNAQNTLYLRMNSLKSEDTAIYYCAKDSRRLIRSNYETFGLGTQVTVSS
Regarding B16, the binding result in test [1] and in test [2] was “binds” in each case.

B17: KY704050 (VHH)
VHH: EVQLVESGGGLVQAGGSLRLSCVASGRTLSSYTMGWFRQAPGKEREFLALITWSGGSTHYADSVKGRFTISRDNPKNTAYLQMGSLKPEDTAVYFCAARFRGVIATMARDYDYWGQGTLVTVSS
For the molecule B17, the binding result in test [1] and in test [2] was “binds” each time.

B18: KY704048 (VHH)
VHH: EVQLVESGGGLVQAGGSLRLSCAASGDTFSTYGMGWFRQAPGKEREIVARITWNRRTYYADSVKGRFTISRDNAKNAAYLEMNSLKPEDTAVYMCAAVRGDNLFHTRPRDYDYWGQGTLVTVSS
With B18, the binding result in test [1] and in test [2] was “binds” in each case.

B19: 11G10 (VHH)
VHH: EVQLVESGGGSVQAGGSLRLSCAASGRVAMGWFRQAPGKEREFVAAISASGGSSSYADSVKGRFTISRDSAKSTVYLQMNSLEPEDTAVYYCAARARTLGWVSADVSAYDYWGQGTQVTVSS
Turning to B19, the binding result in test [1] and in test [2] was “binds” throughout.

B20: KY704039 (VHH)
VHH: EVQLVESGGGLVQAGGSLRLTCAASGNFFNIITMGWFRQAPGKERELVAVDTAGRSISYLDSVKGRFTIVRDNAKNTVILEMNSLTPEDTAVYYCYATGHRSVTGGIYVTWGQGTLVTVSS
On to B20, for which the binding result in test [1] and in test [2] was “binds” each time.

B21: KY704052 (VHH)
VHH: EVQLVESGGGLVQAGGSLRLSCAASGRTFSDYSMGWFRQAPGKEREPVAAVSRSGDDLMYENSLKGRFAISRDNAKNTVYLQMNSLKPEDTAVYYCAASTRFITALAANYDYWGQGTLVTVSS
For B21, the binding result in test [1] and in test [2] was “binds” throughout.

B22: 11F03 (VHH)
VHH: EVQLVESGGGLVQAGGSLRLSCVVSGIYFRLYTMNWYRQALGKQREYVAMITNDGSTNYGASIKGRFTISRDNAKNTVYLQMNNLNPEDTAVYYCNAHDYWGQGTQVTVSS
With B22, the binding result in test [1] and in test [2] was “binds” each time.

B23: 8D02 (VHH)
VHH: EVQLVESGGGLVQTGGSLRLSCAASGLTFSDYAMGWFRQAAGKEREFVGVISWGGRHTYYGDFAKGRFTISRENSKNTVYLQMNSLKPEDTAVYTCARKRGMADIAYTHATSYDYWGQGTQVTVSS
Take B23: the binding result in test [1] and in test [2] was “binds” throughout.

B24: 8G04 (VHH)
VHH: EVQLVESGGGLVQAGGSLRLSCAASGRTFSVYPMGWFRQAPGKEREFVATISRRGAISYYQDSVKGRFTISRDSANDTVYLQMNSLRPEDTAVYYCAQYKASSSSYTRGRPDEIVYWGQGTQVTVSS
B24: the binding result in test [1] and in test [2] was “binds” in each case.

B25: KY704049 (VHH)
VHH: EVQLVESGGGVVQTGGSLRLSCAASGRYAMGWFRQVSGKEREFVAFISASGGSTYYADSVKGRFTISRDNAKTTLAYLQMISLKPEDTAVYYCATSGGIFRGLYYDTRNYNYWGQGTLVTVSS
As for B25, the binding result in test [1] and in test [2] was “binds” throughout.

B26: 5B04 (VHH)
VHH: EVQLVKSGGGLVQVGGSLRLSCAASGRTFSSYAMGWFRQAPGKERELVAAINWNGGRTYYADFVKGRFTISRDNAKNTVYLQMNSLKPEDTAVYYCAAGHLTSTGVLHPADYYNWDEYDYWGQGTQVTVSS
With B26, the binding result in test [1] and in test [2] was “binds” in each case.

B27: 8C03 (VHH)
VHH: EVQLVESGGGFVQAGGSLRLSCAASVRIAMGWFRQAPGKEREFVARISASGGSTEYADSVKGRFTISRDSSKSTAYLQMNSLKPEDTAVYYCAARLWNQREYPYWGQGTQVTVSS
Regarding B27, the binding result in test [1] and in test [2] was “binds” in each case.
